The results in this text go back to patent US20200002414A1 (published 2020).

The target of experiment [1] is T1, human Ror2 (human, UniProt Q01974 34-403, limits assumed).
T1 construct: also called hROR2; receptor tyrosine kinase-like orphan receptor 2
The experiment in a line: ELISA, human Ror2, pH 7.4. For orientation: An ELISA detects its analyte on a solid surface through an enzyme-linked reagent.

The target in experiment [2] is T1, human Ror2. Briefly: ELISA, human Ror2, pH 6.0.
Experiment [3] deals with T1, human Ror2. The experiment in a line: ELISA, human Ror2; ratio of signal at pH 6.0 to pH 7.4.
Experiment [4] deals with T1, human Ror2. Briefly: ELISA.
For experiment [5], the target named is T2, mouse Ror2 (mouse, UniProt Q9Z138 34-403, limits assumed).
T2 construct: also called mROR2
The experiment in a line: ELISA.

Experiment [6] concerns the target T3, cynomolgus Ror2 (cynomolgus, UniProt A0A7N9D5U8 34-403).
T3 construct: also called cynoROR2
Briefly: ELISA.

T1 sequence (Q01974 34-403 limits assumed): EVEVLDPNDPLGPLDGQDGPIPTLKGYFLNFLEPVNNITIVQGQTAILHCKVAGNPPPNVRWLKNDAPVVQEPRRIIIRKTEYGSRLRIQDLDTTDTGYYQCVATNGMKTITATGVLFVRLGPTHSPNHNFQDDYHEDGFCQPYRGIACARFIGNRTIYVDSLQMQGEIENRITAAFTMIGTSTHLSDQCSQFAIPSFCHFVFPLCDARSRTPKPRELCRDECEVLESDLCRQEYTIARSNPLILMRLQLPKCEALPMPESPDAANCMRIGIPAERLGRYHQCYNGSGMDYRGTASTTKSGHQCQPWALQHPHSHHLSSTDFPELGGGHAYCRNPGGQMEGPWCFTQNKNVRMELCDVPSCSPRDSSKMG
T2 sequence (Q9Z138 34-403 limits assumed): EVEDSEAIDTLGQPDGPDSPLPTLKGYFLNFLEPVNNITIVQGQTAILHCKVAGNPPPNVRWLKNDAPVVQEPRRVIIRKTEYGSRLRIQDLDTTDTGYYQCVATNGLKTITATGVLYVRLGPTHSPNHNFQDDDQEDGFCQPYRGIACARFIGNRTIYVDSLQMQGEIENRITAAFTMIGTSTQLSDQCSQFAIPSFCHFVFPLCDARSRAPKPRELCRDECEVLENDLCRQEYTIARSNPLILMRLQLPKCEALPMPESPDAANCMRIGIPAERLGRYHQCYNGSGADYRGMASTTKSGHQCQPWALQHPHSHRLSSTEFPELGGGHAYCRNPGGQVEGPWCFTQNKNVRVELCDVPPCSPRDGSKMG
T3 sequence (A0A7N9D5U8 entry or part of it): as the sequence (Q01974 34-403 limits assumed) above, with L5P, T212A, M289T, T320A counted along it

B1: LC-Y031D (antibody, V domains shown)
VH: EVQLQQSGPELVKPGASVKISCKTSGYTFTEYTMHWMKQSHRKSLEWIGGINTNNGGTGYNQKFKGKATLTVDKSSSTAYMELRSLTSEDSAVYFCARGSLYSYGNSYFDYWGQGTLVTVSS
VL: QIVLTQSPAIMSASPGEKVTITCSATSSVSDMHWFQQKPGTSPKLWIYGTSNLASGVPARFSGSGSGTSYSLTISRMEAEDAATYYCQQRSSYPFTFGQGTKVEIK
Turning to B1, in experiment [1], the “Affinity ELISA pH 7.4” value was found to be 0.405. Further, the “Affinity ELISA pH 6.0” value in experiment [2] was determined as 0.911. For the same molecule, the “ratio, pH 6.0/7.4” value in experiment [3] was determined as 2.25.

B2: LC-H033G (antibody, V domains shown)
VH: EVQLQQSGPELVKPGASVKISCKTSGYTFTEYTMHWMKQSHRKSLEWIGGINTNNGGTGYNQKFKGKATLTVDKSSSTAYMELRSLTSEDSAVYFCARGSLYSYGNSYFDYWGQGTLVTVSS
VL: QIVLTQSPAIMSASPGEKVTITCSATSSVSYMGWFQQKPGTSPKLWIYGTSNLASGVPARFSGSGSGTSYSLTISRMEAEDAATYYCQQRSSYPFTFGQGTKVEIK
Regarding B2, the “Affinity ELISA pH 7.4” value in experiment [1] is 0.536. The “Affinity ELISA pH 6.0” value in experiment [2] worked out at 1.1. Further, the “ratio, pH 6.0/7.4” value in experiment [3] stood at 2.06.

B3: LC-F097E (antibody, V domains shown)
VH: EVQLQQSGPELVKPGASVKISCKTSGYTFTEYTMHWMKQSHRKSLEWIGGINTNNGGTGYNQKFKGKATLTVDKSSSTAYMELRSLTSEDSAVYFCARGSLYSYGNSYFDYWGQGTLVTVSS
VL: QIVLTQSPAIMSASPGEKVTITCSATSSVSYMHWFQQKPGTSPKLWIYGTSNLASGVPARFSGSGSGTSYSLTISRMEAEDAATYYCQQRSSYPFTEGQGTKVEIK
Take B3: in experiment [1], the “Affinity ELISA pH 7.4” value came to 0.215. For the same molecule, in experiment [2], the “Affinity ELISA pH 6.0” value was determined as 0.489. Moreover, the “ratio, pH 6.0/7.4” value in experiment [3] came to 2.28.

B4: LC-S092V (antibody, V domains shown)
VH: EVQLQQSGPELVKPGASVKISCKTSGYTFTEYTMHWMKQSHRKSLEWIGGINTNNGGTGYNQKFKGKATLTVDKSSSTAYMELRSLTSEDSAVYFCARGSLYSYGNSYFDYWGQGTLVTVSS
VL: QIVLTQSPAIMSASPGEKVTITCSATSSVSYMHWFQQKPGTSPKLWIYGTSNLASGVPARFSGSGSGTSYSLTISRMEAEDAATYYCQQRSVYPFTFGQGTKVEIK
In the case of B4, the “Affinity ELISA pH 7.4” value in experiment [1] came to 1.18. The “Affinity ELISA pH 6.0” value in experiment [2] is 1.23. The “ratio, pH 6.0/7.4” value in experiment [3] stood at 1.04.

B5: LC-G049H (antibody, V domains shown)
VH: EVQLQQSGPELVKPGASVKISCKTSGYTFTEYTMHWMKQSHRKSLEWIGGINTNNGGTGYNQKFKGKATLTVDKSSSTAYMELRSLTSEDSAVYFCARGSLYSYGNSYFDYWGQGTLVTVSS
VL: QIVLTQSPAIMSASPGEKVTITCSATSSVSYMHWFQQKPGTSPKLWIYHTSNLASGVPARFSGSGSGTSYSLTISRMEAEDAATYYCQQRSSYPFTFGQGTKVEIK
As to B5, in experiment [1], the “Affinity ELISA pH 7.4” value came out at 0.118. Further, in experiment [2], the “Affinity ELISA pH 6.0” value amounted to 1.87. In addition, the “ratio, pH 6.0/7.4” value in experiment [3] came to 15.9.

B6: LC-G049C (antibody, V domains shown)
VH: EVQLQQSGPELVKPGASVKISCKTSGYTFTEYTMHWMKQSHRKSLEWIGGINTNNGGTGYNQKFKGKATLTVDKSSSTAYMELRSLTSEDSAVYFCARGSLYSYGNSYFDYWGQGTLVTVSS
VL: QIVLTQSPAIMSASPGEKVTITCSATSSVSYMHWFQQKPGTSPKLWIYCTSNLASGVPARFSGSGSGTSYSLTISRMEAEDAATYYCQQRSSYPFTFGQGTKVEIK
Regarding B6, the “Affinity ELISA pH 7.4” value in experiment [1] is 0.133. For the same molecule, in experiment [2], the “Affinity ELISA pH 6.0” value was found to be 0.468. Also, the “ratio, pH 6.0/7.4” value in experiment [3] is 3.52.

B7: LC-Y031C (antibody, V domains shown)
VH: EVQLQQSGPELVKPGASVKISCKTSGYTFTEYTMHWMKQSHRKSLEWIGGINTNNGGTGYNQKFKGKATLTVDKSSSTAYMELRSLTSEDSAVYFCARGSLYSYGNSYFDYWGQGTLVTVSS
VL: QIVLTQSPAIMSASPGEKVTITCSATSSVSCMHWFQQKPGTSPKLWIYGTSNLASGVPARFSGSGSGTSYSLTISRMEAEDAATYYCQQRSSYPFTFGQGTKVEIK
Consider B7, for which the “Affinity ELISA pH 7.4” value in experiment [1] was 0.7. Further, the “Affinity ELISA pH 6.0” value in experiment [2] came out at 1.34. Further, in experiment [3], the “ratio, pH 6.0/7.4” value was 1.92.

B8: LC-R090H (antibody, V domains shown)
VH: EVQLQQSGPELVKPGASVKISCKTSGYTFTEYTMHWMKQSHRKSLEWIGGINTNNGGTGYNQKFKGKATLTVDKSSSTAYMELRSLTSEDSAVYFCARGSLYSYGNSYFDYWGQGTLVTVSS
VL: QIVLTQSPAIMSASPGEKVTITCSATSSVSYMHWFQQKPGTSPKLWIYGTSNLASGVPARFSGSGSGTSYSLTISRMEAEDAATYYCQQHSSYPFTFGQGTKVEIK
Regarding B8, in experiment [1], the “Affinity ELISA pH 7.4” value stood at 0.256. Further, the “Affinity ELISA pH 6.0” value in experiment [2] is 0.56. Besides, the “ratio, pH 6.0/7.4” value in experiment [3] was 2.19.

B9: LC-H033L (antibody, V domains shown)
VH: EVQLQQSGPELVKPGASVKISCKTSGYTFTEYTMHWMKQSHRKSLEWIGGINTNNGGTGYNQKFKGKATLTVDKSSSTAYMELRSLTSEDSAVYFCARGSLYSYGNSYFDYWGQGTLVTVSS
VL: QIVLTQSPAIMSASPGEKVTITCSATSSVSYMLWFQQKPGTSPKLWIYGTSNLASGVPARFSGSGSGTSYSLTISRMEAEDAATYYCQQRSSYPFTFGQGTKVEIK
Regarding B9, in experiment [1], the “Affinity ELISA pH 7.4” value is 0.332. In experiment [2], the “Affinity ELISA pH 6.0” value was determined as 0.69. For the same molecule, the “ratio, pH 6.0/7.4” value in experiment [3] worked out at 2.08.

B10: LC-T096D (antibody, V domains shown)
VH: EVQLQQSGPELVKPGASVKISCKTSGYTFTEYTMHWMKQSHRKSLEWIGGINTNNGGTGYNQKFKGKATLTVDKSSSTAYMELRSLTSEDSAVYFCARGSLYSYGNSYFDYWGQGTLVTVSS
VL: QIVLTQSPAIMSASPGEKVTITCSATSSVSYMHWFQQKPGTSPKLWIYGTSNLASGVPARFSGSGSGTSYSLTISRMEAEDAATYYCQQRSSYPFDFGQGTKVEIK
B10: the “Affinity ELISA pH 7.4” value in experiment [1] came out at 0.474. Besides, the “Affinity ELISA pH 6.0” value in experiment [2] was 0.755. In addition, in experiment [3], the “ratio, pH 6.0/7.4” value was 1.59.

B11: LC-F097D (antibody, V domains shown)
VH: EVQLQQSGPELVKPGASVKISCKTSGYTFTEYTMHWMKQSHRKSLEWIGGINTNNGGTGYNQKFKGKATLTVDKSSSTAYMELRSLTSEDSAVYFCARGSLYSYGNSYFDYWGQGTLVTVSS
VL: QIVLTQSPAIMSASPGEKVTITCSATSSVSYMHWFQQKPGTSPKLWIYGTSNLASGVPARFSGSGSGTSYSLTISRMEAEDAATYYCQQRSSYPFTDGQGTKVEIK
For the molecule B11, in experiment [1], the “Affinity ELISA pH 7.4” value came out at 0.107. Further, the “Affinity ELISA pH 6.0” value in experiment [2] turned out to be 0.19. For the same molecule, in experiment [3], the “ratio, pH 6.0/7.4” value stood at 1.77.

B12: LC-S030D (antibody, V domains shown)
VH: EVQLQQSGPELVKPGASVKISCKTSGYTFTEYTMHWMKQSHRKSLEWIGGINTNNGGTGYNQKFKGKATLTVDKSSSTAYMELRSLTSEDSAVYFCARGSLYSYGNSYFDYWGQGTLVTVSS
VL: QIVLTQSPAIMSASPGEKVTITCSATSSVDYMHWFQQKPGTSPKLWIYGTSNLASGVPARFSGSGSGTSYSLTISRMEAEDAATYYCQQRSSYPFTFGQGTKVEIK
Regarding B12, in experiment [1], the “Affinity ELISA pH 7.4” value came out at 0.252. For the same molecule, the “Affinity ELISA pH 6.0” value in experiment [2] is 0.733. Besides, the “ratio, pH 6.0/7.4” value in experiment [3] worked out at 2.91.

B13: LC-S092D (antibody, V domains shown)
VH: EVQLQQSGPELVKPGASVKISCKTSGYTFTEYTMHWMKQSHRKSLEWIGGINTNNGGTGYNQKFKGKATLTVDKSSSTAYMELRSLTSEDSAVYFCARGSLYSYGNSYFDYWGQGTLVTVSS
VL: QIVLTQSPAIMSASPGEKVTITCSATSSVSYMHWFQQKPGTSPKLWIYGTSNLASGVPARFSGSGSGTSYSLTISRMEAEDAATYYCQQRSDYPFTFGQGTKVEIK
On to B13, for which the “Affinity ELISA pH 7.4” value in experiment [1] was found to be 1.12. Further, in experiment [2], the “Affinity ELISA pH 6.0” value is 1.13. In addition, in experiment [3], the “ratio, pH 6.0/7.4” value came out at 1.

B14: LC-Q089E (antibody, V domains shown)
VH: EVQLQQSGPELVKPGASVKISCKTSGYTFTEYTMHWMKQSHRKSLEWIGGINTNNGGTGYNQKFKGKATLTVDKSSSTAYMELRSLTSEDSAVYFCARGSLYSYGNSYFDYWGQGTLVTVSS
VL: QIVLTQSPAIMSASPGEKVTITCSATSSVSYMHWFQQKPGTSPKLWIYGTSNLASGVPARFSGSGSGTSYSLTISRMEAEDAATYYCQERSSYPFTFGQGTKVEIK
Regarding B14, the “Affinity ELISA pH 7.4” value in experiment [1] is 0.251. Moreover, the “Affinity ELISA pH 6.0” value in experiment [2] is 0.438. For the same molecule, in experiment [3], the “ratio, pH 6.0/7.4” value was 1.74.

B15: LC-G049P (antibody, V domains shown)
VH: EVQLQQSGPELVKPGASVKISCKTSGYTFTEYTMHWMKQSHRKSLEWIGGINTNNGGTGYNQKFKGKATLTVDKSSSTAYMELRSLTSEDSAVYFCARGSLYSYGNSYFDYWGQGTLVTVSS
VL: QIVLTQSPAIMSASPGEKVTITCSATSSVSYMHWFQQKPGTSPKLWIYPTSNLASGVPARFSGSGSGTSYSLTISRMEAEDAATYYCQQRSSYPFTFGQGTKVEIK
As for B15, the “Affinity ELISA pH 7.4” value in experiment [1] was 0.268. The “Affinity ELISA pH 6.0” value in experiment [2] came out at 0.66. Further, the “ratio, pH 6.0/7.4” value in experiment [3] came to 2.46.

B16: conditionally active antibody BAP048 (antibody, V domains shown)
VH: EVQLVQSGAEVKKPGESLRISCKGSGYTFTEYTMHWVRQAPGQGLEWMGGINTNNGGTGYNQKFKGRVTISADKSISTAYLQWSSLKASDTAMYYCAHGSLYSYGNSYFDYWGQGTLVTVSS
VL: AIQLTQSPSSLSASVGDRVTITCSATSSVSYMHWYLQKPGQSPQLLIYGTSNLASGVPDRFSGSGSGTDFTLKISRVEAEDVGVYYCQQRSSYPFTFGQGTKVEIK
Broadly, the EC50 is the concentration needed to bring the measured effect to its halfway point. As to B16, the EC50 in experiment [4] amounted to 0.201 µg/mL; in experiment [5], 7.65 µg/mL; in experiment [6] it was 0.327 µg/mL.
